Results from article PMC11203732, “Structural Evaluation of a Nitroreductase Engineered for Improved Activation of the 5-Nitroimidazole PET Probe SN33623” (International Journal of Molecular Sciences, 2024).

Target: the molecule itself
Experiment: crystal structure; hanging-drop vapor diffusion at 18 °C; 7 mg/mL protein in 40 mM Tris-HCl pH 7.0, 200 mM NaCl; precipitant 0.2 M sodium chloride, 0.1 M sodium acetate pH 4.0, 33% PEG 8000; four molecules in the asymmetric unit; FMN bound

B1: E. coli NfsB F70A/F108Y (enzyme)
chain: MDIISVALKRHSTKAFDASKKLTPEQAEQIKTLLQYSPSSTNSQPWHFIVASTEEGKARVAKSAAGNYVANERKMLDASHVVVFCAKTAMDDVWLKLVVDQEDADGRYATPEAKAANDKGRKFFADMHRKDLHDDAEWMAKQVYLNVGNFLLGVAALGLDAVPIEGFDAAILDAEFGLKEKGYTSLVVVPVGHHSVEDFNATLPKSRLPQNITLTEV
notes: Nitroreductase NfsB of Escherichia coli, 24 kDa subunit, with the substitutions F70A and F108Y; synthetic gene (Twist Bioscience) cloned into pET28a+; Homodimer with one FMN in each of two active sites at the dimer interface; also called mutNfsB; double-mutant F70A/F108Y
  stoichiometry N: 2
